The assay deals with hPD-L1(ECD)-mFc (human). The assay is described as follows: ELISA, hPD-L1-mFc coated. A general note: An ELISA detects its analyte on a solid surface through an enzyme-linked reagent.

Among the data in patent WO2019109974A1 are EC50 values, retold here.

Chain of hPD-L1(ECD)-mFc (human) (chain, as listed by the source limits assumed): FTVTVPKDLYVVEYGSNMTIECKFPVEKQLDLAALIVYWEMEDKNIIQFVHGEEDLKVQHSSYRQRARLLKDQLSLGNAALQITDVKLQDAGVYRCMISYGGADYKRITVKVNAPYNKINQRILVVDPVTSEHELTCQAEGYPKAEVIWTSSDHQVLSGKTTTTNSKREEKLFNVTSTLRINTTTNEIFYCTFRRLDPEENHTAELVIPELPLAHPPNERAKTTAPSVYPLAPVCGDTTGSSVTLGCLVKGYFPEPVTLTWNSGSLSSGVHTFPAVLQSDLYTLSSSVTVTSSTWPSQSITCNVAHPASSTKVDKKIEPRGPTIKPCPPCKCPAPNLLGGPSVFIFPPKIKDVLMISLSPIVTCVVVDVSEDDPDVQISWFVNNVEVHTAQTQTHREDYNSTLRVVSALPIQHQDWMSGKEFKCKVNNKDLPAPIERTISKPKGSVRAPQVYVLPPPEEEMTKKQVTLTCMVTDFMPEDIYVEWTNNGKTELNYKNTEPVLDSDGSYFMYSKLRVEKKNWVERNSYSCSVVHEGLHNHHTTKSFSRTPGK

As for Tecentriq (antibody), the EC50 (as a rule, the concentration giving half of the maximal effect) came out at 0.142 µg/mL.
